Here are results for eight molecules from PMC9427005 (Science (New York, N.y.), 2022).

For the experiment, the target named is SARS-CoV-2 Wuhan-Hu-1 RBD for SPR binding assays (SARS-CoV-2 Wuhan-Hu-1 (NC_045512.2), UniProt P0DTC2). Kind of experiment: SPR. The settings on record: both partners purified.

B1: LY-CoV016 IgG1 (antibody, V domains shown)
VH: EVQLVESGGGLVQPGGSLRLSCAASGFTVSSNYMSWVRQAPGKGLEWVSVIYSGGSTFYADSVKGRFTISRDNSMNTLFLQMNSLRAEDTAVYYCARVLPMYGDYLDYWGQGTLVTVSS
VL: not shown
notes: IgG1
For the molecule B1, the affinity, expressed as Kd, was 13.8 nM.

B2: LY-CoV555 IgG1 (antibody, V domains shown)
VH: QVQLVQSGAEVKKPGSSVKVSCKASGGTFSNYAISWVRQAPGQGLEWMGRIIPILGIANYAQKFQGRVTITADKSTSTAYMELSSLRSEDTAVYYCARGYYEARHYYYYYAMDVWGQGTAVTVSS
VL: not shown
notes: IgG1
Turning to B2, the dissociation constant Kd stood at 1.48 nM, the dissociation rate constant (koff) worked out at 0.00117 s⁻¹ and the association rate constant (kon) was found to be 792000 M⁻¹ s⁻¹.

B3: REGN10933 IgG1 (antibody, V domains shown)
VH: QVQLVESGGGLVKPGGSLRLSCAASGFTFSDYYMSWIRQAPGKGLEWVSYITYSGSTIYYADSVKGRFTISRDNAKSSLYLQMNSLRAEDTAVYYCARDRGTTMVPFDYWGQGTLVTVSS
VL: DIQMTQSPSSLSASVGDRVTITCQASQDITNYLNWYQQKPGKAPKLLIYAASNLETGVPSRFSGSGSGTDFTFTISGLQPEDIATYYCQQYDNLPLTFGGGTKVEIK
notes: IgG1
Take B3: the dissociation constant Kd was found to be 0.689 nM, the off-rate constant (koff) was determined as 0.00364 s⁻¹ and the on-rate constant (kon) came to 5.29e+06 M⁻¹ s⁻¹.

B4: S2X35 IgG (antibody, V domains shown)
VH: QVQLVQSGAEVKKPGASVKVSCKASGYTFTNYGISWVRQAPGQGLEWMGWISAYKGNTNYAQKLQGRVTMTTDTSTSTAYMELRSLRSDDTAVYYCARPDYQVLGYDFWIGYYGMDVWGQGTTVIVSS
VL: QSVLTQPPSVSGAPGQRVTISCTGSSSNIGAGYDVHWYQQLPGTAPKLLIYGNTNRPSGVPDRFSGSKSGTSASLAITGLQAEDEADYYCQSYDSSLSGSEVVFGGGTKLTVL
Take B4: binding was put at a Kd of 0.268 nM, the dissociation rate constant (koff) was found to be 0.000153 s⁻¹ and the on-rate constant (kon) is 570000 M⁻¹ s⁻¹.

B5: ADI-58125 IgG1 (antibody, V domains shown)
VH: EVQLVESGGGLVKPGGSLRLSCAASGFTFSSYYMNWVRQAPGKGLEWVSSISEDGYSTYYPDSLKGRFTISRDSAKNSLYLQMNSLRADDTAVYYCARDFSGHTAWAGTGFEYWGQGTLVTVSS
VL: QSVLTQPPSVSGAPGQRITISCTGSSSNIGAGYDVHWYQQLPGTAPKLLIYGSSSRNSGVPDRFSGSKSGTSASLAITGLQAEDEADYYCQSYDSSLSVLYTFGTGTKVTVL
notes: IgG1
B5 came in with a Kd of less than 0.01 nM, a koff of 7.17e-08 s⁻¹ and a kon of 1.15e+06 M⁻¹ s⁻¹.

B6: REGN10987 IgG1 (antibody, V domains shown)
VH: QVQLVESGGGVVQPGRSLRLSCAASGFTFSNYAMYWVRQAPGKGLEWVAVISYDGSNKYYADSVKGRFTISRDNSKNTLYLQMNSLRTEDTAVYYCASGSDYGDYLLVYWGQGTLVTVSS
VL: QSALTQPASVSGSPGQSITISCTGTSSDVGGYNYVSWYQQHPGKAPKLMIYDVSKRPSGVSNRFSGSKSGNTASLTISGLQSEDEADYYCNSLTSISTWVFGGGTKLTVL
notes: IgG1
B6 registered a Kd of 12.4 nM.

B7: COV2-2196 IgG1 (antibody, V domains shown)
VH: QMQLVQSGPEVKKPGTSVKVSCKASGFTFMSSAVQWVRQARGQRLEWIGWIVIGSGNTNYAQKFQERVTITRDMSTSTAYMELSSLRSEDTAVYYCAAPYCSSISCNDGFDIWGQGTMVTVSS
VL: not shown
notes: IgG1
As for B7, the Kd is 1.09 nM, the koff turned out to be 0.0124 s⁻¹ and the association rate constant (kon) was found to be 1.14e+07 M⁻¹ s⁻¹.

B8: CT-P59 IgG1 (antibody, V domains shown)
VH: QITLKESGPTLVKPTQTLTLTCSFSGFSLSTSGVGVGWIRQPPGKALEWLALIDWDDNKYHTTSLKTRLTISKDTSKNQVVLTMTNMDPVDTATYYCARIPGFLRYRNRYYYYGMDVWGQGTTVTVSS
VL: ELVLTQPPSVSAAPGQKVTISCSGSSSNIGNNYVSWYQQLPGTAPKLLIYDNNKRPSGIPDRFSGSKSGTSATLGITGLQTGDEADYYCGTWDSSLSAGVFGGGTELTVL
notes: IgG1
Regarding B8, binding was put at a Kd of 0.066 nM, the off-rate constant (koff) is 0.000365 s⁻¹ and the association rate constant (kon) was 5.54e+06 M⁻¹ s⁻¹.

Broadly, the Kd is the free concentration of one partner at which half of the binding sites on the other are occupied at equilibrium, for simple one-to-one binding. Read a high Kd as a looser complex. What is called koff is the rate constant with which the complex falls apart. As a reminder, the kon is the rate constant with which the complex forms. A low value points to slower complex formation.
